# Patent US20130066054A1 (UCB, published 2013)
# Numbering of substitutions follows the chain as printed. Names may count otherwise. “And” between values parts separate entries of the source, which are not always exact repeats. Equal entries are not always repeated.
# T1: OX40 (UniProt P43489 29-214)
# T1 construct: also called O × 40
# T1 sequence (looked up): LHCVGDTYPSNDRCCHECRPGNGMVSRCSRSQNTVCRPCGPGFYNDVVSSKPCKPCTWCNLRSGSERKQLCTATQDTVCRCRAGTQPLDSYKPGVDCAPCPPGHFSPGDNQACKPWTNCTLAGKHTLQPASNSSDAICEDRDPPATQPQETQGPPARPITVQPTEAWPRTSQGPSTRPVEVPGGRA
# B1: A26Fab-(3xG4S)-dsFv645 (bispecific antibody)
# heavy: EVQLVESGGGLVQPGGSLRLSCAASGFTFTNYGIHWIRQAPGKGLEWVASISPSGGLTYYRDSVKGRFTISRDDAKNSPYLQMNSLRAEDTAVYYCATGGEGIFDYWGQGTLVTVSSASTKGPSVFPLAPSSKSTSGGTAALGCLVKDYFPEPVTVSWNSGALTSGVHTFPAVLQSSGLYSLSSVVTVPSSSLGTQTYICNVNHKPSNTKVDKKVEPKSCSGGGGSGGGGSGGGGSEVQLLESGGGLVQPGGSLRLSCAVSGIDLSNYAINWVRQAPGKCLEWIGIIWASGTTFYATWAKGRFTISRDSTTVYLQMNSLRAEDTAVYYCARTVPGYSTAPYFDLWGQGTLVTVSS
# light: DIQMTQSPSSLSASVGDRVTITCRATQSIYNALAWYQQKPGKAPKLLIYNANTLHTGVPSRFSASGSGTDSTLTISSLQPEDFATYYCQQYYDYPLTFGGGTKVEIKRTVAAPSVFIFPPSDEQLKSGTASVVCLLNNFYPREAKVQWKVDNALQSGNSQESVTEQDSKDSTYSLSSTLTLSKADYEKHKVYACEVTHQGLSSPVTKSFNRGECSGGGGSGGGGSGGGGSDIVMTQSPSSVSASVGDRVTITCQSSPSVWSNFLSWYQQKPGKAPKLLIYEASKLTSGVPSRFKGSGSGTDFTLTISSLQPEDFATYYCGGGYSSISDTTFGCGTKVEIK
# modifications: 645 Fv disulfide between Cys44 of SEQ ID NO 227 and Cys100 of SEQ ID NO 44 (Kabat); both cysteines are already in the letters
# notes: Fab-dsFv: anti-OX40 A26 Fab with the anti-HSA 645 disulfide-stabilised Fv at the C-termini; The asterisk of 'A26-645std*' is not explained; also called A26-645std; A26-645std*
# B2: A26-645 Ser163Cys H (bispecific antibody)
# heavy: B1 heavy with S160C
# light: B1 light
# modifications: 645 Fv disulfide between Cys44 of SEQ ID NO 227 and Cys100 of SEQ ID NO 44 (Kabat); both cysteines are already in the letters
# notes: Surface cysteine mutant of A26-645 (Kabat numbering); also called S163C CH1; mutation 2
# B3: A26-645 Glu143Cys K (bispecific antibody)
# heavy: B1 heavy
# light: B1 light with E143C
# notes: Surface cysteine mutant of A26-645 (Kabat numbering); also called E143C CK; mutation 8
# B4: A26-645 Cys233Ser H (bispecific antibody)
# heavy: B1 heavy with C220S
# light: B1 light
# modifications: 645 Fv disulfide between Cys44 of SEQ ID NO 227 and Cys100 of SEQ ID NO 44 (Kabat); both cysteines are already in the letters
# notes: Control mutant of A26-645 without the heavy chain's interchain cysteine (Kabat numbering); also called C233S CH1; mutation 5
# B5: A26-645 Ser171Cys K (bispecific antibody)
# heavy: B1 heavy
# light: B1 light with S171C
# notes: Surface cysteine mutant of A26-645 (Kabat numbering); also called S171C CK; mutation 11
# B6: A26-645 Asn210Cys K (bispecific antibody)
# heavy: B1 heavy
# light: B1 light with N210C
# modifications: 645 Fv disulfide between Cys44 of SEQ ID NO 227 and Cys100 of SEQ ID NO 44 (Kabat); both cysteines are already in the letters
# notes: Surface cysteine mutant of A26-645 (Kabat numbering); also called N210C CK; mutation 12
# B7: A26-645 Lys145Cys K (bispecific antibody)
# heavy: B1 heavy
# light: B1 light with K145C
# notes: Surface cysteine mutant of A26-645 (Kabat numbering); also called K145C CK; mutation 9
# B8: A26-645 Lys149Cys K (bispecific antibody)
# heavy: B1 heavy
# light: B1 light with K149C
# notes: Surface cysteine mutant of A26-645 (Kabat numbering); also called K149C CK; mutation 10
# B9: A26-645 Lys107Cys K (bispecific antibody)
# heavy: B1 heavy
# light: B1 light with K340C
# notes: Surface cysteine mutant of A26-645 in the 645 Fv light domain (Kabat numbering); also called K107C 645 Fv light; mutation 15
# B10: A26-645 Ser77Cys K (bispecific antibody)
# heavy: B1 heavy
# light: B1 light with S308C
# notes: Surface cysteine mutant of A26-645 in the 645 Fv light domain (Kabat numbering); also called S77C 645 Fv light; mutation 14
# B11: A26-645 Ser82bCys H (bispecific antibody)
# heavy: B1 heavy with S318C
# light: B1 light
# modifications: 645 Fv disulfide between Cys44 of SEQ ID NO 227 and Cys100 of SEQ ID NO 44 (Kabat); both cysteines are already in the letters
# notes: Surface cysteine mutant of A26-645 in the 645 Fv heavy domain (Kabat numbering); also called S82bC 645 Fv Heavy; mutation 6
# B12: A26-645 Cys214Ser K (bispecific antibody)
# heavy: B1 heavy
# light: B1 light with C214S
# modifications: 645 Fv disulfide between Cys44 of SEQ ID NO 227 and Cys100 of SEQ ID NO 44 (Kabat); both cysteines are already in the letters
# notes: Control mutant of A26-645 without the light chain's interchain cysteine (Kabat numbering); also called C214S CK; mutation 13
# B13: A26-645 Thr116Cys H (bispecific antibody)
# heavy: B1 heavy with T120C
# light: B1 light
# modifications: 645 Fv disulfide between Cys44 of SEQ ID NO 227 and Cys100 of SEQ ID NO 44 (Kabat); both cysteines are already in the letters
# notes: Surface cysteine mutant of A26-645 (Kabat numbering); also called T116C CH1; mutation 1
# B14: A26-645 Ser182Cys H (bispecific antibody)
# heavy: B1 heavy with S177C
# light: B1 light
# modifications: 645 Fv disulfide between Cys44 of SEQ ID NO 227 and Cys100 of SEQ ID NO 44 (Kabat); both cysteines are already in the letters
# notes: Surface cysteine mutant of A26-645; also called A26-645 Ser180Cys H; S182C CH1
# Molecular target: T1, OX40
# Assay: SPR (Biacore 3000), Fab-dsFv captured, antigen injected, 1:1 fit;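 further: capture antibody amine-coupled on chip, 3 min antigen association then 20 min dissociation, antigen titrated, reference flow-cell and buffer blanks subtracted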
# Protocol: (§1) Covalent immobilisation of the capture antibody was achieved by standard amine coupling chemistry.
# (§2) Each assay cycle consisted of firstly capturing the Fab-dsFv using a 1 min injection, before an association phase consisting of a 3 min injection of antigen, after which dissociation was monitored for 20 min. After each cycle, the capture surface was regenerated with 2×1 min injections of 40 mM HCl followed by 30 s of 5 mM NaOH. The flow rates used were 10 μl/min for capture, 30 μl/min for association and dissociation phases, and 10 μl/min for regeneration.
# (§3) For kinetic assays, a titration of antigen was performed, a blank flow-cell was used for reference subtraction and buffer-blank injections were included to subtract instrument noise and drift.
Kd,koff,kon,Binder
0.328 nM and 0.33 nM and 0.463 nM and 0.46 nM,0.000149 s⁻¹ and 0.000191 s⁻¹,452000 M⁻¹ s⁻¹ and 413000 M⁻¹ s⁻¹,B1
0.265 nM and 0.27 nM,0.000146 s⁻¹,550000 M⁻¹ s⁻¹,B2
0.325 nM and 0.33 nM,0.000155 s⁻¹,477000 M⁻¹ s⁻¹,B3
0.27 nM,0.000124 s⁻¹,461000 M⁻¹ s⁻¹,B4
0.194 nM and 0.19 nM,9.24e-05 s⁻¹,477000 M⁻¹ s⁻¹,B5
0.229 nM and 0.23 nM,0.000111 s⁻¹,483000 M⁻¹ s⁻¹,B6
0.241 nM and 0.24 nM,0.00011 s⁻¹,457000 M⁻¹ s⁻¹,B7
0.231 nM and 0.23 nM,0.000107 s⁻¹,465000 M⁻¹ s⁻¹,B8
0.234 nM and 0.23 nM,0.00012 s⁻¹,515000 M⁻¹ s⁻¹,B9
0.248 nM and 0.25 nM,0.000117 s⁻¹,470000 M⁻¹ s⁻¹,B10
0.247 nM and 0.25 nM,0.000117 s⁻¹,473000 M⁻¹ s⁻¹,B11
0.278 nM and 0.28 nM,0.000122 s⁻¹,437000 M⁻¹ s⁻¹,B12
0.27 nM,0.000146 s⁻¹,540000 M⁻¹ s⁻¹,B13
0.247 nM and 0.25 nM,0.000108 s⁻¹,437000 M⁻¹ s⁻¹,B14

# Molecular target: T2, human serum albumin (human, UniProt P02768 25-609)
# T2 construct: also called HSA
# Assay: as above
# Protocol: as §1, §2, §3
Kd,koff,kon,Binder
3.57 nM and 4.11 nM,0.000461 s⁻¹ and 0.000421 s⁻¹,129000 M⁻¹ s⁻¹ and 103000 M⁻¹ s⁻¹,B1
3.34 nM,0.000722 s⁻¹,216000 M⁻¹ s⁻¹,B2
2.2 nM,0.000337 s⁻¹,153000 M⁻¹ s⁻¹,B3
1.76 nM,0.000275 s⁻¹,157000 M⁻¹ s⁻¹,B4
2.06 nM,0.000257 s⁻¹,125000 M⁻¹ s⁻¹,B5
1.6 nM,0.000284 s⁻¹,178000 M⁻¹ s⁻¹,B6
1.89 nM,0.000259 s⁻¹,137000 M⁻¹ s⁻¹,B7
1.72 nM,0.00025 s⁻¹,145000 M⁻¹ s⁻¹,B8
2.28 nM,0.000342 s⁻¹,150000 M⁻¹ s⁻¹,B9
2.75 nM,0.000282 s⁻¹,102000 M⁻¹ s⁻¹,B10
1.09 nM,0.000257 s⁻¹,236000 M⁻¹ s⁻¹,B11
1.7 nM,0.000282 s⁻¹,166000 M⁻¹ s⁻¹,B12
1.87 nM,0.000351 s⁻¹,188000 M⁻¹ s⁻¹,B13
1.95 nM,0.000411 s⁻¹,210000 M⁻¹ s⁻¹,B14
